Test results published in patent US20260021168A1.

Experiments:
[1] = biological target: ATGAM (equine Anti-thymocyte Globulin); test: cell-based or functional assay
[2] = biological target: Thymoglobulin (Genzyme), rabbit anti-thymocyte globulin; test: cell-based or functional assay
[3] = biological target: alemtuzumab (Campath, anti-CD52, Genzyme), intact IgG; test: cell-based or functional assay
[4] = biological target: endogenous human serum IgG

Molecule: imlifidase (IdeS, Immunoglobulin G-degrading enzyme of S. pyogenes)
- cytotoxic activity of ATGAM in whole blood after imlifidase treatment, CD3+ flow cytometry [1]: > 30 µg/mL
- cleavage of 50 µg/mL rATG in sera of imlifidase-treated subjects, SDS-PAGE and Western blot [2]: 0.5 µg/mL
- block of the cytotoxic effect of alemtuzumab on CD3-positive T-cells in whole blood, flow cytometry [3]: 1.9 µg/mL
- imlifidase concentration sufficient for cleavage in whole blood (SDS-PAGE of plasma, CD3+ flow cytometry) [3]: 4 µg/mL

B1: imlifidase (IdeS, Immunoglobulin G-degrading enzyme of S. pyogenes) (protein)
chain: DSFSANQEIRYSEVTPYHVTSVWTKGVTPPANFTQGEDVFHAPYVANQGWYDITKTFNGKDDLLCGAATAGNMLHWWFDQNKDQIKRYLEEHPEKQKINFNGEQMFDVKEAIDTKNHQLDSKLFEYFKEKAFPYLSTKHLGVFPDHVIDMFINGYRLSLTNHGPTPVKEGSKDPRGGIFDAVFTRGDQSKLLTSRHDFKEKNLKEISDLIKKELTEGKALGLSHTYANVRINHVINLWGADFDSNGNLKAIYVTDSDSNASIGMKKYFVGVNSAGKVAISAKEIKEDNIGAQVLGLFTLSTGQDSWNQTN
- imlifidase concentration sufficient for cleavage in whole blood (SDS-PAGE of plasma) [4]: a concentration of approx. 4 µg/mL imlifidase is sufficient to cleave all serum IgG and 100 µg/mL alemtuzumab
